# Results as given in patent US7189519B2, “Bead-based detection of ligand-GPCR-G protein complexes” (STC.UNM, priority 1998, dated 2007).
# Biological target: T1, FPR-αi2 (R-α) fusion protein (UniProt P04897+P21462)
# T1 construct: expressed in transfected cells; U937 stated only for FPR
# Test: RGS activity assay on beads (FPR-αi2, fluorescent ligand, GTP, Gβγ beads)
# Format: biochemical
# Method: FPR-αi2 (R-α) was used in the standard assembly assay with fluorescent ligand (see FIG. 3, complex C), and with the amounts of GTP and RGS shown in FIG. 7, using beads coated with Gβγ. Bead fluorescence was measured as previously described.
# Standard LRG Assembly Assay. The standard 10 μl assay consisted of 2 μl of water or 10^−4M GTPγS, 6 μl of soluble receptor preparation with or without ligand, and 2 μl of beads prepared as above, with 0.7 pmol G protein used per assay, and an unknown fraction left on the beads in the proper orientation. For FPR and R-αi2 assemblies, L^F (fMLFK-FITC) was added in excess of receptor to ensure that essentially all the receptor was bound. For FPR-GFP assembly, 10^−6 M L (fMLFFGGK) was added to the receptor preparation to ensure that essentially all the receptor was bound. Each mixture was mixed by pipetting to ensure a uniform starting suspension of the beads in 96 V-well plates (Costar), and then mixed at low speed on a vortex mixer at 7° for two hours. The 10 μl assays were individually brought to 200 μl with 0.1% dodecyl maltoside in buffer A in 12×75 mm tubes for flow cytometric measurement of fluorescence of the beads. LRG assembly was defined as the difference between fluorescence without GTPγS and that with GTPγS. All determinations were done in duplicate.
# RGS Activity Affects LR-αG Assemblies on Beads. As a second mechanistic problem, the role of GTP and RGS activity in regulating the assembly of βγ subunits with the receptor-Giα fusion protein was examined (FIG. 7; see also FIGS. 3, complex C and FIG. 4B). […] The data were consistent with the idea that RGS, by enhancing the cleavage of GTP, affected the GTP dose-response for the formation of the bead-based complex. The shift in the dose-response was consistent with the consumption of 10 μM or more GTP in 10 μl over 2 hours in the presence of R-α, RGS, and L. Calculating that 24 nM R-α (the total added) consumed 10 μM GTP equally in the first half hour, leaving 60 minutes for assembly on the bead, the turnover number was ˜14 min^−1 for the receptor-Giα fusion protein at 7° C.; if rates double for every 10° C. increase, this would imply about 110 min^−1 at 37° C. Calculating consumption over the entire time yields ˜5 and 40 min^−1, respectively.
# The nucleotide sensitivity of the assembly of R-αi2 with βγ allowed the activity and specificity of RGS to be examined. […] This assembly format therefore has the potential for discriminating RGS antagonists. Elsewhere it is described how GTP increases access of soluble assemblies of R-αi2 to anti-αi2 antibody, consistent with the idea of Ay binding and release (Shi M, et al., submitted).
# T1 sequence (P21462+P04897 fused): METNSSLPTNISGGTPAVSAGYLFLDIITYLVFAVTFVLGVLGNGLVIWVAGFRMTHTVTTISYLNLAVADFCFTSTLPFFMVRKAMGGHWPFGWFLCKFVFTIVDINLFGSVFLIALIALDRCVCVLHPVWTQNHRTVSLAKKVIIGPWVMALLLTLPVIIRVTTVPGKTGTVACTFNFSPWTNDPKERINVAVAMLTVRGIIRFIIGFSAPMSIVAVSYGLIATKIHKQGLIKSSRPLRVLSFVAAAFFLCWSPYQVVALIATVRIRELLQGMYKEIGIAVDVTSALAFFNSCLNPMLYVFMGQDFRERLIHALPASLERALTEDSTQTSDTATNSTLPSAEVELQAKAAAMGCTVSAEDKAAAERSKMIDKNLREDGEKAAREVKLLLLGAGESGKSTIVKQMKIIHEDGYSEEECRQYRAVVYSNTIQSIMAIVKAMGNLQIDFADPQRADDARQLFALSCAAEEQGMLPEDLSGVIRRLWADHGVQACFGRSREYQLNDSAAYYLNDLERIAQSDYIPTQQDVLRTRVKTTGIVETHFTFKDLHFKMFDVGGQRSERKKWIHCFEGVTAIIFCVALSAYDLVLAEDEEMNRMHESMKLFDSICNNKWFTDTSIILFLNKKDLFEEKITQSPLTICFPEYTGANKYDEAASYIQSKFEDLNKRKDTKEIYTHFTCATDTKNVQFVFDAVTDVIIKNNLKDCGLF
row,GTP consumption in the presence of LR-α,Molecule
1,appeared to consume GTP,"RGS7: regulator of G protein signaling protein (protein, UniProt P49802 1-495, looked up) Regulator of G-protein …: MAQGNNYGQTSNGVADESPNMLVYRKMEDVIARMQDEKNGIPIRTVKSFLSKIPSVFSGSDIVQWLIKNLTIEDPVEALHLGTLMAAHGYFFPISDHVLTLKDDGTFYRFQTPYFWPSNCWEPENTDYAVYLCKRTMQNKARLELADYEAESLARLQRAFARKWEFIFMQAEAQAKVDKKRDKIERKILDSQERAFWDVHRPVPGCVNTTEVDIKKSSRMRNPHKTRKSVYGLQNDIRSHSPTHTPTPETKPPTEDELQQQIKYWQIQLDRHRLKMSKVADSLLSYTEQYLEYDPFLLPPDPSNPWLSDDTTFWELEASKEPSQQRVKRWGFGMDEALKDPVGREQFLKFLESEFSSENLRFWLAVEDLKKRPIKEVPSRVQEIWQEFLAPGAPSAINLDSKSYDKTTQNVKEPGRYTFEDAQEHIYKLMKSDSYPRFIRSSAYQELLQAKKKSGNSMDRRTSFEKFAQNVGRNIPIFPCHKNCTPTLRASTNLL"
2,did not,"RGS2: regulator of G protein signaling protein (protein, UniProt P41220 1-211, looked up) Regulator of G-protein …: MQSAMFLAVQHDCRPMDKSAGSGHKSEEKREKMKRTLLKDWKTRLSYFLQNSSTPGKPKTGKKSKQQAFIKPSPEEAQLWSEAFDELLASKYGLAAFRAFLKSEFCEENIEFWLACEDFKKTKSPQKLSSKARKIYTDFIEKEAPKEINIDFQTKTLIAQNIQEATSGCFTTAQKRVYSLMENNSYPRFLESEFYQDLCKKPQITTEPHAT"
3,appeared to consume GTP,"RGS8: regulator of G protein signaling protein (protein, UniProt P57771 1-180, looked up) Regulator of G-protein …: MAALLMPRRNKGMRTRLGCLSHKSDSCSDFTAILPDKPNRALKRLSTEEATRWADSFDVLLSHKYGVAAFRAFLKTEFSEENLEFWLACEEFKKTRSTAKLVSKAHRIFEEFVDVQAPREVNIDFQTREATRKNLQEPSLTCFDQAQGKVHSLMEKDSYPRFLRSKMYLDLLSQSQRRLS"
4,appeared to consume GTP,"RGS4: regulator of G protein signaling protein (protein, UniProt P49798 1-205, looked up) Regulator of G-protein …: MCKGLAGLPASCLRSAKDMKHRLGFLLQKSDSCEHNSSHNKKDKVVICQRVSQEEVKKWAESLENLISHECGLAAFKAFLKSEYSEENIDFWISCEEYKKIKSPSKLSPKAKKIYNEFISVQATKEVNLDSCTREETSRNMLEPTITCFDEAQKKIFNLMEKDSYRRFLKSRFYLDLVNPSSCGAEKQKGAKSSADCASLVPQCA"
